Test: in vitro cholesterol transfer between heavy and light liposomes
Format: biochemical
Conditions: purified recombinant ASTER domain, 15 min under agitation
Protocol: Values are means±SEM. […] Input (Ctrl) served as a control for LXR enrichment. […] Values are means±SEM. […] Results values are means±SD. […] Results values are means±SD. […] Values are means±SEM.
Liposomes were generated by drying lipids in glass tube under liquid nitrogen. Lipid films were then resuspended in 50 mM hepes, 120 mM potassium acetate buffer ±0.75M sucrose where indicated. Lipid suspensions were then vortexed and incubated for 30 minutes at 37° C. (2 mM total lipid concentration). Suspensions were then snap frozen in liquid nitrogen and thawed rapidly at 37° C. five times. Light liposomes were prepared by extruding through 100 nm polycarbonate filters. Heavy liposomes containing sucrose were prepared by extruding through a 400 nm polycarbonate filter, then washing several times in 50 mM hepes, 120 mM potassium acetate buffer with no sucrose. Liposome sizes were confirmed using an N4 Dynamic Light Scattering instrument.
To test the ability of the ASTER domain to transfer cholesterol between membranes, an in vitro assay was optimized with heavy and light liposomes. Purified recombinant ASTER domain was incubated with “heavy” PC/dansyl-PE liposomes and “light” PC/cholesterol/dansyl-PE liposomes under agitation for 15 min. The liposomes were separated by centrifugation, and cholesterol levels were determined. Dansyl-PE intensities of heavy liposomes were used to normalize the cholesterol values.

B1: Aster-A: purified recombinant ASTER domain of mouse Aster-A (protein, UniProt Q8VEF1 261-576, looked up, fragment)
chain: AADHSQEPSPVGSRRGRVTPNLSRASSDADHGAEEDKEEQTDGLDASSSQTVTPVAEPLSSEPTPPDGPTSSLGPLDLLSREELLTDTSNSSSSTGEEGDLAALLPDLSGRLLINSVFHMGAERLQQMLFSDSPFLQGFLQQRKFTDVTLSPWSSDSKCHQRRVLTYTIPISNQLGPKSASVVETQTLFRRGPQAGGCVVDSEVLTQGIPYQDYFYTAHRYCILGLARNKARLRVSSEIRYRKQPWSLVKSLIEKNSWSGIEDYFHHLDRELAKAEKLSLEEGGKDTRGLLSGLRRRKRPLSWRGHRDGPQHPDPD
modifications: ASTER domain
In the case of B1, the “cholesterol transfer to the heavy liposomes” value (“cholesterol transfer” for short) is reported as “efficiently facilitated cholesterol transfer”.

B2: Aster-B: purified recombinant ASTER domain of mouse Aster-B (protein, UniProt Q80TI0 224-560, looked up, fragment)
chain: NELGLTSDDEDYVPPDDDFNTMGYCEEIPIEENEVNDSSSKSSIETKPDASPQLPKKSITNSTLTSTGSSEAPVSFDGLPLEEEVMEGDGSLEKELAIDNIIGEKIEIMAPVTSPSLDFNDNEDIPTELSDSSDTHDEGEVQAFYEDLSGRQYVNEVFNFSVDKLYDLLFTNSPFLRDFMEQRRFSDIIFHPWKKEENGNQSRVILYTITLTNPLAPKTATVRETQTMYKASQESECYVIDAEVLTHDVPYHDYFYTINRYTLTRVARNKSRLRVSTELRYRKQPWGFVKTFIEKNFWSGLEDYFRHLETELTKTESTYLAEIHRQSPKEKASKSSA
modifications: ASTER domain
With B2 the “cholesterol transfer” value was “efficiently facilitated cholesterol transfer”.

B3: Aster-C: purified recombinant ASTER domain of mouse Aster-C (protein, UniProt Q8CI52 206-528, looked up, fragment)
chain: MEHLLSVEENVQPRSPGRSSVDDAGERDEKFSKAVSFTQESVSRASETEPLDGNSPKRGLGKEDSQSERNVRKSPSLASEKRISRAPSKSLDLNKNEYLSLDKSSTSDSVDEENIPEKDLQGRLYINRVFHISAERMFELLFTSSHFMQRFANSRNIIDVVSTPWTVESGGNQLRTMTYTIVLSNPLTGKYTAATEKQTLYKESREAQFYLVDSEVLTHDVPYHDYFYTLNRYCIVRSAKQRCRLRVSTDLKYRKQPWGLIKSLIEKNSWSSLESYFKKLESDLLMEESVLSQSIEDAGKHSSLRRRRRTLNRTAEPVPKLSS
modifications: ASTER domain
For B3, the “cholesterol transfer” value was “efficiently facilitated cholesterol transfer”.
